Values quoted from earlier work in article PMC10423694.

Legend:
K48-diUb (Homo sapiens) = K48-diUb (Homo sapiens) (UniProt P0CG47); test: SPR
[1] = target: ubiquitin monomer (Homo sapiens) (UniProt P0CG47); test: SPR
M1-diUb (Homo sapiens) = M1-diUb (Homo sapiens) (UniProt P0CG47); test: SPR
K63-diUb (Homo sapiens) = K63-diUb (Homo sapiens) (UniProt P0CG47); test: SPR
ubiquitin (Homo sapiens) = ubiquitin (Homo sapiens) (UniProt P0CG47)

Sequence of NEMO (Q9Y6K9 whole entry): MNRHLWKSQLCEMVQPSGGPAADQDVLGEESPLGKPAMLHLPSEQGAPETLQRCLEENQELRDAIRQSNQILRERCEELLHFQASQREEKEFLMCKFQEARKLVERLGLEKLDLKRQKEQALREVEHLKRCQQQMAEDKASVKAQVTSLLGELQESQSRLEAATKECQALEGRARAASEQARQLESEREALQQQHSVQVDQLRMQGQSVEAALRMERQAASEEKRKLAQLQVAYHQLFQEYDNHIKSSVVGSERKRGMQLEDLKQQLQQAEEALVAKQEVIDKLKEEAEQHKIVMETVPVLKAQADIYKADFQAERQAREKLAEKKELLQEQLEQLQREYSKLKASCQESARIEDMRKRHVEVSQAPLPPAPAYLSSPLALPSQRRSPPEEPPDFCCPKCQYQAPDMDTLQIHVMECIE
Sequence of UBQLN2 UBA (Q9UHD9 578-624): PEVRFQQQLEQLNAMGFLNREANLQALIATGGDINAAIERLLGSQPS

For NEMO (from UniProt Q9Y6K9), the Kd (K48-diUb (Homo sapiens)) is given as 169 µM, the Kd [1] is given as 152 µM and the Kd (M1-diUb (Homo sapiens)) is given as 4.5 µM. For the same substance, the Kd (K63-diUb (Homo sapiens)) was 140 µM.
For UBQLN2 UBA (from UniProt Q9UHD9), the Kd (ubiquitin (Homo sapiens)) is listed as 8 µM.
